Read-outs that look alike come from different tables or passages of the source.
How the values were obtained:
[1] = target: eIF4G1 (Saccharomyces cerevisiae) (UniProt P39935); conditions: cited from earlier work
[2] = target: Cy5-eIF4E(A124C) (S. cerevisiae) (UniProt P07260); assay: single-molecule FRET
[3] = target: Cy5-eIF4E(A124C) (S. cerevisiae) (UniProt P07260); assay: single-molecule FRET; remark: listed apart in the source

Row | Kd [2] [nM] | Kd [3] [nM] | Molecule | Kd [1] [nM]
1 | – | – | eIF4E (from UniProt P07260) | < 15
2 | 20 | 25 | eIF4G1 eIF4E-binding domain (4EBD) flanked by additional eIF4G1 sequence (amino acids 348-513) (domain or fragment) EETEVAETEQSNIDESATTPAIPTKSDEAEAEVEAEAGDAGTKIGLEAEIETTTDETDDGTNTVSHILNVLKDATPIEDVFSFNYPEGIEGPDIKYKKEHVKYTYGPTFLLQFKDKLNVKADAEWVQSTASKIVIPPGMGRGNRSRDSGRFGNNSSRGHDFRNTSV | –
3 | – | 20 | full-length eIF4G1 (natural protein) MTDETAHPTQSASKQESAALKQTGDDQQESQQQRGYTNYNNGSNYTQKKPYNSNRPHQQRGGKFGPNRYNNRGNYNGGGSFRGGHMGANSSNVPWTGYYNNYPVYYQPQQMAAAGSAPANPIPVEEKSPVPTKIEITTKSGEHLDLKEQHKAKLQSQERSTVSPQPESKLKETSDSTSTSTPTPTPSTNDSKASSEENISEAEKTRRNFIEQVKLRKAALEKKRKEQLEGSSGNNNIPMKTTPENVEEKGSDKPEVTEKTKPAEEKSAEPEVKQETPAEEGEQGEKGQIKEESTPKVLTFAERLKLKKQQKEREEKTEGKENKEVPVQEETKSAIESAPVPPSEQVKEETEVAETEQSNIDESATTPAIPTKSDEAEAEVEAEAGDAGTKIGLEAEIETTTDETDDGTNTVSHILNVLKDATPIEDVFSFNYPEGIEGPDIKYKKEHVKYTYGPTFLLQFKDKLNVKADAEWVQSTASKIVIPPGMGRGNRSRDSGRFGNNSSRGHDFRNTSVRNMDDRANSRTSSKRRSKRMNDDRRSNRSYTSRRDRERGSYRNEEKREDDKPKEEVAPLVPSANRWVPKFKSKKTEKKLAPDGKTELLDKDEVERKMKSLLNKLTLEMFDAISSEILAIANISVWETNGETLKAVIEQIFLKACDEPHWSSMYAQLCGKVVKELNPDITDETNEGKTGPKLVLHYLVARCHAEFDKGWTDKLPTNEDGTPLEPEMMSEEYYAAASAKRRGLGLVRFIGFLYRLNLLTGKMMFECFRRLMKDLTDSPSEETLESVVELLNTVGEQFETDSFRTGQATLEGSQLLDSLFGILDNIIQTAKISSRIKFKLIDIKELRHDKNWNSDKKDNGPKTIQQIHEEEERQRQLKNNSRSNSRRTNNSSNRHSFRRDAPPASKDSFITTRTYSQRNSQRAPPPKEEPAAPTSTATNMFSALMGESDDEE | –

— article PMC3878992
